Here are results for 1 molecule from patent US20150197796, “SSB METHOD” (OXFORD NANOPORE TECHNOLOGIES LIMITED, published 2015).

The target in this data set is EcoSSB-WT (Escherichia coli, UniProt P0AGE0 SEQ:1-177). The data set is described as follows: EMSA; 5% TBE gel. The following applies: tags: N-terminal His6-TEV site removed; commercial EcoSSB-WT also run; chain copies: 4 stated (homotetramer in solution). On the technique in general: In EMSA bound probe runs differently from free probe, usually more slowly.

B1: 70mer polyT (ssDNA)
DNA: TTTTTTTTTTTTTTTTTTTTTTTTTTTTTTTTTTTTTTTTTTTTTTTTTTTTTTTTTTTTTTTTTTTTTT
On to B1, for which the binding result is listed as “binds”.
